Measurements as given in paper PMC7793589 (Science Advances, 2021).

Columns and labels:
[1] = biological target: plasma kallikrein (human)
[2] = biological target: the molecule itself; assay: SAXS

Molecule | IC50 of ITIH4 on cleavage of HMWK by plasma kallikrein in Ca2+/Mg2+, SDS-PAGE [1] [nM] | stoichiometry N [2]
recombinant ITIH4 (ITIH4 WT) (from UniProt Q14624 29-930) (natural protein) | 90 | –
recombinant ITIH4 (ITIH4 WT) (natural protein, human, UniProt Q14624 29-930, looked up) EKNGIDIYSLTVDSRVSSRFAHTVVTSRVVNRANTVQEATFQMELPKKAFITNFSMIIDGMTYPGIIKEKAEAQAQYSAAVAKGKSAGLVKATGRNMEQFQVSVSVAPNAKITFELVYEELLKRRLGVYELLLKVRPQQLVKHLQMDIHIFEPQGISFLETESTFMTNQLVDALTTWQNKTKAHIRFKPTLSQQQKSPEQQETVLDGNLIIRYDVDRAISGGSIQIENGYFVHYFAPEGLTTMPKNVVFVIDKSGSMSGRKIQQTREALIKILDDLSPRDQFNLIVFSTEATQWRPSLVPASAENVNKARSFAAGIQALGGTNINDAMLMAVQLLDSSNQEERLPEGSVSLIILLTDGDPTVGETNPRSIQNNVREAVSGRYSLFCLGFGFDVSYAFLEKLALDNGGLARRIHEDSDSALQLQDFYQEVANPLLTAVTFEYPSNAVEEVTQNNFRLLFKGSEMVVAGKLQDRGPDVLTATVSGKLPTQNITFQTESSVAEQEAEFQSPKYIFHNFMERLWAYLTIQQLLEQTVSASDADQQALRNQALNLSLAYSFVTPLTSMVVTKPDDQEQSQVAEKPMEGESRNRNVHSGSTFFKYYLQGAKIPKPEASFSPRRGWNRQAGAAGSRMNFRPGVLSSRQLGLPGPPDVPDHAAYHPFRRLAILPASAPPATSNPDPAVSRVMNMKIEETTMTTQTPAPIQAPSAILPLPGQSVERLCVDPRHRQGPVNLLSDPEQGVEVTGQYEREKAGFSWIEVTFKNPLVWVHASPEHVVVTRNRRSSAYKWKETLFSVMPGLKMTMDKTGLLLLSDPDKVTIGLLFWDGRGEGLRLLLRDTDRFSSHVGGTLGQFYQEVLWGSPAASDDGRRTLRVQGNDHSATRERRLDYQEGPPGVEISCWSVEL | – | 2
